One data set in a line: Canine pharmacokinetics. An excerpt:
Canine pharmacokinetics and toxicities. […] All procedures and protocols involving care, handling, and dosing for this study were reviewed and approved by the Institutional Animal Care and Use Committee (IACUC) at North Carolina State University College of Veterinary Medicine, which is an AAALAC-accredited facility. The animals' health status were monitored daily by the animal technicians and veterinary staff, paying particular attention for signs of gastrointestinal toxicities including vomiting, diarrhea, lethargy, and inappetence. If noted, supportive care was provided. […] 2 mL blood samples were drawn from jugular vein at 40 s, 15 and 30 min, 2, 4, 8, 24, 48, and 72 h after injection, diluted into 400 μL heparinized PBS (1000 UmL^−1). Sample processing and analysis were performed as with murine pharmacokinetics studies.

The nature of data set [1]: Biodistribution in C26 tumor-bearing mice. Particulars: mouse, in vivo. In kind it is in vivo, Balb/C mice. As for the experimental part: Cell culture and tumor inoculation.
Biodistribution. […] At 2 and 24 h after injection, tissues (tumor, muscle, heart, lung, liver, spleen and kidney) were removed, weighed and suspended in 1.0 mL acidified isopropanol (75 mM HCl, 10% water, 90% isopropanol). Tissues were then homogenized using 2 mm diameter zirconia beads and a MiniBeadbeater-1TM (Biospec; Bartlesville, OK) for 2 min at 5,000 beats per minute and were incubated overnight at 4° C. in the dark. The isopropanol extracts were then vortexed, and centrifuged (14,000 RPM, 10 min, 4° C.) and 125 uL of the supernatant was loaded onto a black 96-well plate (BD Biosciences) in duplicate. […] To correct for background tissue fluorescence, tissues were removed from three untreated control mice and were processed similarly. For each tissue, a background (counts per mg tissue) curve was created using 2-fold dilutions of the processed tissues in acidified isopropanol.

For data set [2], the system named is C26 murine colon adenocarcinoma cells.
Experimental: C26 murine colon adenocarcinoma cells were seeded (5000 cells/well) in a 96-well plate. After 24 h, cells were treated in triplicate with 3-fold serial dilutions of drugs beginning with 100 uM. After 72 h incubation, 20 μL of CellTiter 96 AQueous™ (Promega; Madison, WI) 3-(4,5-dimethlthiazol-2-yl)-5-(3-carboxymethoxphenyl)-2-(4-sulfophenyl)-2H-tetrazolium (MTS) reagent was added to each well followed by 3 h incubation at 37° C. The absorbance at 490 nm was determined using a Victor3™ microplate reader (Perkin Elmer; Waltham, MA). For each plate, blank wells (with no cells) were defined as 0% viability and wells treated with PBS were defined as 100% viability. The background absorbance at 490 nm was corrected by subtracting the average absorbance of the blank wells from each well. The percent viability was defined as the absorbance of each well normalized to the absorbance of wells treated with PBS. Inhibitory concentration (IC 50) values were calculated using a four-parameter logistic fit in the Prism program (GraphPad Software, San Diego, CA, USA).
Data set [3] has as its system MDA-MB-231 human breast cancer cells. Briefly: In vitro cytotoxicity, MTS assay, MDA-MB-231 cells. In kind it is cell-based. Particulars: 72 h incubation, read-out: half-maximal inhibitory concentration (IC50). Here is the method:
In vitro cytotoxicity of the ABDN-CP-PTX versus that of naked CP-PTX and free PTX was determined using the […] MTS assay. […] The MTS assay was repeated twice to ensure validity of results.

Data set [4] can be described thus: Dynamic and static light scattering. Particulars: for % Intensity / Polydispersity / Rh: DLS. The class given is physicochemical. Here is the method: Light Scattering. Dynamic and static light scattering measurements were performed using an ALV/CGS-3 goniometer system (Germany). […] To study the effect of albumin binding on micellar self-assembly, mouse albumin was added to the samples at 1:1 albumin-CP molar ratio in PBS. Measurements were obtained at 25° C. and 37° C. for angles between 30-150° at 5° increments with each angle consisting of 3 runs and 10 s each at each run. Hydrodynamic radius (Rh) was determined by dynamic light scattering. The radius of gyration (Rg) and the average molecular weight of the particle (MW) were calculated from the slope and intercept of a partial Zimm plot, respectively, using ALV/Dynamic and Static FIT and PLOT software and according. The micelle aggregation number Nagg, or the number of polypeptide chains per nanoparticle, was calculated by dividing the micelle molecular weight by the molecular weight of the polypeptide monomer.
Size and morphology of CP conjugated micelles. The radius and the aggregation number of the self-assembled micelles were determined, in the presence and absence of albumin, by dynamic and static light scattering at 37° C. using an ALV/CGS-3 goniometer system (Germany). Freeze fracture electron microscopy was performed to visualize the micelles and estimate their radius and morphology.

The target in data set [5] is T1, human serum albumin (HSA) (Homo sapiens, UniProt P02768). As to the kind of experiment: Isothermal titration calorimetry (Nano ITC) for PTX conjugates with human albumin. In kind it is binding. Here is the method:
(§1) For PTX conjugates, ITC was conducted using a Nano ITC system (TA Instruments, Utah, USA). Aliquots of 10 uL of 500 uM albumin in PBS were titrated via a 250 μl syringe into CP-PTX at 50 uM concentration, stirring at 300 rpm at 37° C. For background correction, PBS (in the cell) was titrated with albumin (in the syringe) at the same concentrations and conditions. Background was subtracted from the final curves and the binding and thermodynamic parameters binding constant (KD), number of binding sites (n), and enthalpy (ΔH)—were computed by non-linear fitting to an independent-binding site model using TA Instruments NanoAnalyze software.

For data set [6], the target named is T2, mouse serum albumin (MSA) (Mus musculus, UniProt P07724). Briefly: Isothermal titration calorimetry (Nano ITC) for PTX conjugates with mouse albumin. The class given is binding. Here is the method:
as §1

A short description of data set [7]: Thermal turbidimetry (transition temperature). The class given is physicochemical. Here is the method:
Thermal Turbidimetry. Thermal profiles of CPs and CP conjugates were determined by measuring the transition temperature (Tt) over a range of concentrations (5, 10, 25, 50, and 100 uM) in PBS, FBS, and MS using a Cary UV-visible spectrophotometer equipped with temperature controller (Agilent Technologies, CA, USA). […] The transition temperature was defined as the maximum first derivative of the optical density.

For data set [8], the target named is T2, mouse serum albumin (MSA). As to the kind of experiment: Isothermal titration calorimetry (VP-ITC) of polypeptide carriers and DOX micelles with mouse albumin. The class given is binding. Particulars: PBS pH 7.4, 37° C. As for the experimental part: (§2) Interaction with albumin. Interaction of CP monomers and micelles with human and mouse albumin was analyzed by isothermal titration calorimetry (ITC).
For orientation: Isothermal titration calorimetry measures the heat released or taken up as one component is titrated into another.

Data set [9] is described as follows: Pharmacokinetics of Alexa488-labeled ABD-ELP and ELP monomers in mice. The class given is in vivo. The note with it: tail vein, Balb/C mice, two-compartment model. As for the experimental part:
A single cysteine was added to the C-terminus of polypeptides and was reacted with Alexa 488-maleimide (Life Technologies, Carlsbad, CA, USA). 50 uL Alexa 488-maleimide at 27.75 uM in DMSO was added to the polypeptide solution in the reaction (250 uM) and was allowed to stir for 3 hr at room temperature in the dark. Unbound Alexa488 was then removed by Amicon ultra-15 centrifugal filter units (MWCO 10 kDa, Millipore) and in PBS. Alexa488 concentration and conjugation efficiency was then determined.
125 uL of the supernatant was loaded onto a black 96-well plate (BD Biosciences) in duplicate. Free Alexa488-maleimide solutions at various known concentrations were prepared in heparinized PBS and were loaded onto the plate as standards. Alexa488 fluorescence was measured on a Wallac Victor3 TM microplate reader (Perkin Elmer; Waltham, MA).

Data set [10] addresses T1, human serum albumin (HSA). Briefly: Isothermal titration calorimetry (VP-ITC) of polypeptide carriers with human albumin. In kind it is binding. Particulars: PBS pH 7.4, 37° C. Here is the method: as §2
Where [11] appears, read: dogs, cephalic vein, 27 DOX Equiv/m^−2 BSA or 0.9 mg DOX Equiv/kg BW.

Read-outs that look alike come from different tables or passages of the source.

T2 sequence (P07724 25-608): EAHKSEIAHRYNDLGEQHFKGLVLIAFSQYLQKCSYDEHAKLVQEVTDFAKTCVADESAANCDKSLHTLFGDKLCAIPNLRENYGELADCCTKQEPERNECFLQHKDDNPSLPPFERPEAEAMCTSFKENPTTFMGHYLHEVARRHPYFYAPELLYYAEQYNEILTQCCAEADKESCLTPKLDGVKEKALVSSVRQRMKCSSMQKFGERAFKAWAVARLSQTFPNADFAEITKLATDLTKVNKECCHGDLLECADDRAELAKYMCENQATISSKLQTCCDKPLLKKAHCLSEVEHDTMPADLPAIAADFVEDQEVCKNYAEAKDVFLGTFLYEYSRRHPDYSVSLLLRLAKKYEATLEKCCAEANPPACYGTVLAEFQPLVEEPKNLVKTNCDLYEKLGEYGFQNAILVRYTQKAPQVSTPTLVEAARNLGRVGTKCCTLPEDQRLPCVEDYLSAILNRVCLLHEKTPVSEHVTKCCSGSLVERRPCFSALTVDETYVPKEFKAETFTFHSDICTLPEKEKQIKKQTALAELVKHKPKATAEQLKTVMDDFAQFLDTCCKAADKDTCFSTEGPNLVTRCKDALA

Consider `COc1cccc2c1C(=O)c1c(O)c3c(c(O)c1C2=O)C[C@@](O)(C(=O)CO)C[C@@H]3O[C@H]1C[C@H](N)[C@H](O)[C@H](C)O1` [DOX, doxorubicin, reference compound], for which, in “Canine pharmacokinetics” (dog, in vivo), the “Apparent distribution volume VD” value was determined as 3.85 ± 0.26 mL/g and the “Plasma clearance CL” value came to 0.7875 ± 0.0951 mL/h/g. In “Canine pharmacokinetics” (setting [11]), the “Distribution half-life β t1/2” value stood at 3.6 ± 0.5 min, the “Elimination rate constant kg” value came out at 0.96 ± 0.13 h⁻¹ and the “Plasma to tissue rate constant kpt” value was found to be 8.51 ± 1.20 h⁻¹. For the same molecule, the “Elimination half-life α t1/2” value in “Canine pharmacokinetics” (dogs, cephalic vein, 27 DOX Equiv/m^−2 BSA or 0.9 mg DOX Equiv/kg BW, plasma DOX) was determined as 2.9 ± 0.8 h. Moreover, in [1], the “accumulation in the spleen (in words)” value is recorded as “lower accumulation in the spleen than CP-DOX micelles”; the “distribution to the heart, lung, kidneys, and muscle (in words)” value is reported as “greater extent”. This molecule had an IC50 in data set [2] of 90 nM.

As for `CC(=O)O[C@H]1C(=O)[C@@]2(C)[C@H]([C@H](OC(=O)c3ccccc3)[C@]3(O)C[C@H](OC(=O)[C@H](O)[C@@H](NC(=O)c4ccccc4)c4ccccc4)C(C)=C1C3(C)C)[C@]1(OC(C)=O)CO[C@@H]1C[C@@H]2O` [free PTX, paclitaxel, reference compound], the IC50 in [3] (MDA-MB-231, printed MDA-MB-213 human breast cancer cells) stood at 9.8 nM.

B1: ABD-CP-PTX (conjugate)
chain: LAEAKVLANRELDKYGVSDYYKNLINNAKTVEGVKALIDEILAALPVPGAGVPGAGVPGAGVPGAGVPGAGVPGAGVPGAGVPGAGVPGAGVPGAGVPGAGVPGAGVPGAGVPGAGVPGAGVPGAGVPGAGVPGAGVPGAGVPGAGVPGAGVPGAGVPGAGVPGAGVPGAGVPGAGVPGAGVPGAGVPGAGVPGAGVPGAGVPGAGVPGAGVPGAGVPGAGVPGAGVPGAGVPGAGVPGAGVPGAGVPGAGVPGAGVPGAGVPGAGVPGAGVPGAGVPGAGVPGAGVPGAGVPGAGVPGAGVPGAGVPGAGVPGAGVPGAGVPGAGVPGAGVPGAGVPGAGVPGAGVPGAGVPGAGVPGAGVPGAGVPGAGVPGAGVPGAGVPGAGVPGAGVPGAGVPGAGVPGAGVPGAGVPGAGVPGAGVPGAGVPGAGVPGAGVPGAGVPGAGVPGAGVPGAGVPGAGVPGAGVPGAGVPGAGVPGAGVPGAGVPGAGVPGAGVPGAGVPGAGVPGAGVPGAGVPGAGVPGAGVPGAGVPGAGVPGAGVPGAGVPGAGVPGAGVPGAGVPGAGVPGAGVPGAGVPGAGVPGAGVPGAGVPGAGVPGAGVPGAGVPGAGVPGAGVPGAGVPGAGVPGAGVPGAGVPGAGVPGAGVPGAGVPGAGVPGAGVPGAGVPGAGVPGAGVPGAGVPGAGVPGAGVPGAGVPGAGVPGAGVPGAGVPGAGVPGAGVPGAGVPGAGVPGAGVPGAGVPGAGVPGAGVPGAGVPGAGCGGCGGCGGCGGCGGCGGCGGCGG
Turning to B1, in [4] (Concentration 20 μM), the “% Intensity” value was found to be 95.4%, the Polydispersity came to 24.6% and the Rh is listed as 39.6 ± 2.2 nm. In addition, in data set [4] (Concentration 40 μM), the “% Intensity” value came out at 96.6%, the Polydispersity amounted to 26.6% and the Rh is on record as 44.1 ± 4.7 nm. In [4] (SLS, 20 μM concentration), this molecule gave a Nagg of 64.5 and an RG of 42.83 nm. For the same molecule, in data set [4] (body temperature (37° C.)), the “aggregation (in words)” value was “no aggregates”. In data set [3] (printed MDA-MB-213 human breast cancer cells), the IC50 was 10.9 nM. Moreover, the “n (number of binding sites)” value in [5] is 0.92. Besides, in [6], the “n (number of binding sites)” value stood at 0.95.

B2: ABDN-ELP: ELP scaffold with albumin binding domain ABDN (SEQ ID NO:6) fused to the N-terminus and C-terminal cysteine sequence (protein)
chain: LAEAKVLANRELDKYGVSDYYKNLINNAKTVEGVKALIDEILAALPVPGAGVPGAGVPGAGVPGAGVPGAGVPGAGVPGAGVPGAGVPGAGVPGAGVPGAGVPGAGVPGAGVPGAGVPGAGVPGAGVPGAGVPGAGVPGAGVPGAGVPGAGVPGAGVPGAGVPGAGVPGAGVPGAGVPGAGVPGAGVPGAGVPGAGVPGAGVPGAGVPGAGVPGAGVPGAGVPGAGVPGAGVPGAGVPGAGVPGAGVPGAGVPGAGVPGAGVPGAGVPGAGVPGAGVPGAGVPGAGVPGAGVPGAGVPGAGVPGAGVPGAGVPGAGVPGAGVPGAGVPGAGVPGAGVPGAGVPGAGVPGAGVPGAGVPGAGVPGAGVPGAGVPGAGVPGAGVPGAGVPGAGVPGAGVPGAGVPGAGVPGAGVPGAGVPGAGVPGAGVPGAGVPGAGVPGAGVPGAGVPGAGVPGAGVPGAGVPGAGVPGAGVPGAGVPGAGVPGAGVPGAGVPGAGVPGAGVPGAGVPGAGVPGAGVPGAGVPGAGVPGAGVPGAGVPGAGVPGAGVPGAGVPGAGVPGAGVPGAGVPGAGVPGAGVPGAGVPGAGVPGAGVPGAGVPGAGVPGAGVPGAGVPGAGVPGAGVPGAGVPGAGVPGAGVPGAGVPGAGVPGAGVPGAGVPGAGVPGAGVPGAGVPGAGVPGAGVPGAGVPGAGVPGAGVPGAGVPGAGVPGAGVPGAGVPGAGVPGAGVPGAGVPGAGVPGAGVPGAGVPGAGVPGAGVPGAGVPGAGVPGAGVPGAGCGGCGGCGGCGGCGGCGGCGGCGG
As to B2, the transition temperature in [7] (100 μM concentration in PBS) was determined as 57 °C. The Tt in data set [7] (ABDN-CP fusions for conjugation with Paclitaxel) came out at 48 °C. The “binding stoichiometry N” value in [8] came out at 1.12±0.00. In [9], the “Apparent distribution volume VD” value came out at 0.27 ± 0.01 mL/g, the “Area under the curve AUC” value came to 80.2 ± 1.9 µM·h, the “Distribution half-life β t1/2” value turned out to be 1.24 ± 0.295 h and the “Elimination half-life α t1/2” value came out at 16.8 ± 0.5 h. Also, in [9], the “Elimination rate constant kg” value amounted to 0.08 ± 0.00 h⁻¹, the “Plasma clearance CL” value was 0.012 ± 0.000 mL/h/g, the “Plasma to tissue rate constant kpt” value was found to be 0.21 ± 0.06 h⁻¹ and the “Tissue to plasma rate constant ktp” value was determined as 0.31 ± 0.07 h⁻¹. In data set [9] (listed as ABDN-CP), the “Elimination half-life α t1/2” value turned out to be 17 h. The “n (number of binding sites)” value in data set [5] (listed as ABD-CP) came out at 0.95. Moreover, the “n (number of binding sites)” value in data set [6] (listed as ABD-CP) came to 1.05. For the same molecule, in data set [10], the “binding stoichiometry N” value is on record as 1.04±0.00.

The values above are taken from patent US12594347B2, “Nanoparticulate drug delivery systems” (Duke University, priority 2018, dated 2026).
